Measurements published in publication doi:10.1101/2020.05.18.102780.

Target: Ktedonobacter racemifer acyl carrier protein (KrACP) (Ktedonobacter racemifer DSM 44963)
Experiment: SDS-PAGE

stoichiometry N: 2
Substance: Ktedonobacter racemifer acyl carrier protein (KrACP) (natural protein)
